From patent US9278138B2, “Peptide linkers for effective multivalent peptide binding” (E. I. DU PONT DE NEMOURS AND COMPANY, priority 2008, dated 2016)

B1: SDETGPQIPHRRPTWGPEPEPEPEPIPEPPKEAPVVIEKPKPKPKPKPKPPASDETGPQIPHRRPTW (peptide)
chain: SDETGPQIPHRRPTWGPEPEPEPEPIPEPPKEAPVVIEKPKPKPKPKPKPPASDETGPQIPHRRPTW
modifications: synethic cellulose acetate-binding construct

Assay: Surface Plasmon Resonance binding to spin-coated cellulose acetate surface (Biacore X100)
Conditions: for peptide concentration at which binding response (net RU) started rising: net RU versus peptide concentration, FIG. 6
Method: Binding affinity of CA4 peptide and CA4 multimers were assessed by Surface Plasmon Resonance (SPR). The CA surface was prepared by spin-coating 0.75% CA solution in mixed cyclohexanone/methyl ethyl ketone (1/9 weight ratio) solvent at 2000 rpm for 1 minute twice on the Biacore bare gold sensor chip (Biacore Inc., Catalogue numberBR-1004-05; General Electric Corp., Fairfield, Conn.), followed by 80° C. annealing for 15 minutes. The CA resin used was CA-398-10 from Eastman Chemical Company (Kingsport, Tenn.), and the solution prepared was filtered with 0.2 μm PTFE membrane before use. The thickness of the spin-coated CA thin film was measured by Atomic Force Microscope (AFM) to be 26-30 nm.
Binding of each peptide to the CA surface was tested at various concentration ranges in Tris Buffered Saline (TBS, 25 mM Tris, 150 mM NaCl, pH 7.5), using Biacore X100 system. Each peptide solution sample was injected for 2 minutes at flow rate of 30 μL/minute followed by 10 minutes buffer wash. Surface regeneration and stabilization procedure was performed after each peptide solution injection as such: 90 seconds of 1% SLES (sodium laureth sulfate) solution injection and 90 seconds of 2 M NaCl solution injection at flow rate of 10 μL/minute, and 25 minutes stabilization in TBS. For the samples of each peptide at different concentrations, a new sensor chip flow cell was used.
Because a monolithic CA surface made from spin-coating on the whole sensor chip was used as ligand for peptides, no ligand-free reference cell was possible to have in these tests in order to take bulk response out as in conventional SPR protein assay using Biacore instruments. Bulk response refers to the SPR response to the refractive index difference between the sample solution and the running buffer, but not caused by sample binding to the surface. Bulk response completely disappears once sample injection is finished and buffer wash starts. So the response units (RU) remained right after injection was caused by binding and proportional to the mass of peptide bound to the surface, and was named as “net RU” in binding data. […] Typically, association and dissociation rate constant (ka and kd) can be obtained from binding kinetics curve fitting, and dissociation constant (KD). can be determined from the ratio of dissociation rate constant to association rate constant. The use of short linkers (3-6 amino acid residues) in CA4 dimer 1, CA4 dimer 2 and CA4 trimer gave 5 fold improvement on binding affinity compared to CA4 monomer. The use of long rigid linker (TonB linker) in CA4 dimer 4 gave 50 fold improvement on binding affinity compared to CA4 monomer. […] As control, the TonB linker peptide was tested in the same way.

[1] = TBS pH 7.5, from binding kinetics curve fitting

Molecule | binding affinity to CA surface (in words) (SPR) | KD(M) from kinetics (TBS pH 7.5, ratio of kd to ka) | peptide concentration at which binding response (net RU) started rising [µM] | ka [1] [M⁻¹ s⁻¹] | kd [1] [s⁻¹] | Kd (TBS pH 7.5, ratio of kd to ka, read-out: KD(M) from kinetics) [M] | fold improvement on binding affinity compared to CA4 monomer (based on KD of Table 10) [fold]
GPEPEPEPEPIPEPPKEAPWIEKPKPKPKPKPKPA [TonB linker, reference compound] | no binding affinity | undetectable | > 50 | – | – | – | –
B1 | – | – | 5 | 441.5 | 0.00089 | 2e-06 | 50
